Experimental data from PMC11952670.

How the values were obtained:
[1] = target: ExsF, first 23 residues replaced by a 6xHis tag (B. paranthracis); assay: crystal structure; co-crystallisation of 6xHis-ExsF with the synthetic F-Anchor peptide; 5% v/v T-mate pH 7, 0.1 M sodium cacodylate pH 5.3, 15% v/v PEG smear broad, 10% v/v ethylene glycol; 1.92 Å, P21
[2] = target: C-terminal domain of F-BclA (F-BclA-CTD) (Bacillus thuringiensis subsp. kurstaki); assay: crystal structure; F-BclA-CTD; 1M LiCl, 0.1M citrate pH 4.0, 20% (w/v) PEG 6000; P321

Substance	stoichiometry N [1]	stoichiometry N [2]
ExsF, first 23 residues replaced by a 6xHis tag (domain or fragment)	3	
C-terminal domain of F-BclA (F-BclA-CTD) (domain or fragment)		3
